# According to publication PMC2805030 (2010):
# T1: RXRα LBD 226-462 (Homo sapiens, UniProt P19793)
# T1 chain: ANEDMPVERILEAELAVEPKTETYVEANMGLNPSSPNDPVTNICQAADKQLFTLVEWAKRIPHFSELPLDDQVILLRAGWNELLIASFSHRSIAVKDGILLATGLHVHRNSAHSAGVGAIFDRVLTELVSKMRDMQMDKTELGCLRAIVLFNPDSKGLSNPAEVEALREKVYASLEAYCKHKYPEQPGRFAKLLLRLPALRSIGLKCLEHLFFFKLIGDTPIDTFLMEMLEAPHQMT
# Target: T1, RXRα LBD 226-462
# Assay: sedimentation equilibrium analytical ultracentrifugation
binder,measurement,value
"RXRα LBD 226-462 (protein, fluorescein-labeled) ANEDMPVERILEAELAVEPKTETYVEANMGLNPSSPNDPVTNICQAADKQLFTLVEWAKRIPHFSELPLDDQVILLRAGWNELLIASFSHRSIAVKDGILLATGLHVHRNSAHSAGVGAIFDRVLTELVSKMRDMQMDKTELGCLRAIVLFNPDSKGLSNPAEVEALREKVYASLEAYCKHKYPEQPGRFAKLLLRLPALRSIGLKCLEHLFFFKLIGDTPIDTFLMEMLEAPHQMT",Kd,832 nM
